Data as given in patent US20080050375A1 (Eli Lilly, published 2008).

B1: mAb 21D1 (antibody, human IgG4 S228P, kappa, V domains shown)
VH: QVQLVQSGAEVKKPGASVKVSCKASGYTFTDYNIHWVRQAPGQGLEWMGYIYPYDGETGYNQKFKSRVTMTTDTSTSTAYMELRSLRSDDTAVYYCARGYRWFAYWGQGTLVTVSS
VL: DIQMTQSPSSLSASVGDRVTITCRASSSVPYMHWFQQKPGKAPKSLIYATSNPAYGVPSRFSGSGSGTDFTLTISSLQPEDFATYYCQQWDLNPPAFGQGTKLEIKR
notes: Full-length IgG4 antibody; also called LA307-21D1
B2: mAb DM4 (antibody, human IgG4 S228P, kappa, V domains shown)
VH: QVQLVQSGAEVKKPGASVKVSCKASGYDFTDYNIHWVRQAPGQGLEWMGYIYPYDGETGYNQKFKSRVTMTTDTSTSTAYMELRSLRSDDTAVYYCARGYRWLAYWGQGTLVTVSS
VL: DIQMTQSPSSLSASVGDRVTITCRASSSVSYMHWYQQKPGKAPKPLIYATSNLAYGVPSRFSGSGSGTDFTLTISSLQPEDFATYYCQQWDLNPPAFGQGTKLEIKR
notes: Full-length IgG4 antibody; also called LA307-DM4
B3: Fab DM4 (Fab, V domains shown)
VH: QVQLVQSGAEVKKPGASVKVSCKASGYDFTDYNIHWVRQAPGQGLEWMGYIYPYDGETGYNQKFKSRVTMTTDTSTSTAYMELRSLRSDDTAVYYCARGYRWLAYWGQGTLVTVSS
VL: DIQMTQSPSSLSASVGDRVTITCRASSSVSYMHWYQQKPGKAPKPLIYATSNLAYGVPSRFSGSGSGTDFTLTISSLQPEDFATYYCQQWDLNPPAFGQGTKLEIK
notes: Fab with human constant regions (kappa light chain)
B4: Fab 21D1 (Fab, V domains shown)
VH: QVQLVQSGAEVKKPGASVKVSCKASGYTFTDYNIHWVRQAPGQGLEWMGYIYPYDGETGYNQKFKSRVTMTTDTSTSTAYMELRSLRSDDTAVYYCARGYRWFAYWGQGTLVTVSS
VL: DIQMTQSPSSLSASVGDRVTITCRASSSVPYMHWFQQKPGKAPKSLIYATSNPAYGVPSRFSGSGSGTDFTLTISSLQPEDFATYYCQQWDLNPPAFGQGTKLEIK
notes: Fab with human constant regions (kappa light chain) from M13 expression vectors
B5: Fab 23A3 (Fab, V domains shown)
VH: QVQLVQSGAEVKKPGASVKVSCKASGYDFTDYNMVWVRQAPGQGLEWMGSIYPYDGETGYNQKFKSRVTMTTDTSTSTAYMELRSLRSDDTAVYYCARGYRAFEYWGQGTLVTVSS
VL: DIQMTQSPSSLSASVGDRVTITCRASSSVPYMHWYQQKPGKAPKLLIYATSNPAYGVPSRFSGSGSGTDFTLTISSLQPEDFATYYCQQWDLNPPAFGQGTKLEIK
notes: as for B3
B6: Fab DM7 (Fab, V domains shown)
VH: QVQLVQSGAEVKKPGASVKVSCKASGYDFTDYNMHWVRQAPGQGLEWMGYIYPYDGETGYNQKFKSRVTMTTDTSTSTAYMELRSLRSDDTAVYYCARGYRWLYYWGQGTLVTVSS
VL: DIQMTQSPSSLSASVGDRVTITCRASSSVSYMHWYQQKPGKAPKPLIYATSNLAKGVPSRFSGSGSGTDFTLTISSLQPEDFATYYCQQWDLNPPAFGQGTKLEIK
notes: as for B3
B7: mAb 23A3 (antibody, IgG4, V domains shown)
VH: QVQLVQSGAEVKKPGASVKVSCKASGYDFTDYNMVWVRQAPGQGLEWMGSIYPYDGETGYNQKFKSRVTMTTDTSTSTAYMELRSLRSDDTAVYYCARGYRAFEYWGQGTLVTVSS
VL: DIQMTQSPSSLSASVGDRVTITCRASSSVPYMHWYQQKPGKAPKLLIYATSNPAYGVPSRFSGSGSGTDFTLTISSLQPEDFATYYCQQWDLNPPAFGQGTKLEIK

Legend:
[1] = target: T1, human TGF-beta 3 (RDI, Cat # RDI-1036/CF) (human, UniProt P10600 301-412); experiment: ratio of Biacore Kd for TGF-β3 to Kd for TGF-β1
T1 construct: Bought recombinant protein; also called TGF-β3; TGF-p3
T1 sequence (looked up): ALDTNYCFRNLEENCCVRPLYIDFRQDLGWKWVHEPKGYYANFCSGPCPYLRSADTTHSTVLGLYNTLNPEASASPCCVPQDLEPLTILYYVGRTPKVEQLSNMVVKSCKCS
Procedure: (§1) Affinities of binding composition mAbs for TGF-p3 are determined using BIAcore methods. All measurements are performed at room temperature. Samples are dissolved in HBS-EP buffer (150 mM sodium chloride, 3 mM EDTA, 0.01% (w/v) surfactant P-20, and 10 mM HEPES, pH7.4). Recombinant Protein A is immobilized on four flow cells of a CM4 sensor chip at a level of 400-450 response units (RUs) using an amine coupling kit. Binding is evaluated over multiple analytical cycles. Each cycle is performed at a flow rate of 100 μL/minute consisting of the following steps: injection of 15 μL of an antibody binding composition at 0.5 μg/mL, injection of 250 μL of TGF-β3 (starting at 5 nM and using two-fold serial dilutions to 0.13 nM for each cycle, with two injections for each concentration) followed by a short (5 minutes) delay for dissociation, and regeneration using two injections of 50VL of 10 mM glycine hydrochloride, pH1.5.
(§2) Affinities are determined based upon the equilibrium signal as reached at varying TGF-β3 concentrations by measuring the average signal during the last 10 seconds of the TGF-β3 injections, and then fitting the resulting signals at all of the TGF-β3 concentrations to a simple binding equilibrium model in SCRUBBER (Center for Biomolecular Interaction Analysis, Univ. of Utah). Model data determined for tested human mab composition of the invention of Kd and specificity calculated by dividing the Kd for TGF-β3 binding by the Kd for TGF-β1 binding (herein) is shown below in Table 5.

[2] = target: T1, human TGF-beta 3 (RDI, Cat # …); experiment: Biacore SPR, equilibrium fit, mAb captured on Protein A, TGF-β3 injected
Procedure: as §1, §2

[3] = target: T2, human TGF-beta 1 (R&D Systems, Cat # 240-B/CF) (human, UniProt P01137 279-390); experiment: cell-based or functional assay
[4] = target: T2, human TGF-beta 1 (R&D Systems, Cat # …); experiment: Biacore SPR, mAb captured on Protein A, 5 nM ligand injected; stoichiometry from captured signals
Procedure: (§3) BIAcore methods are used to determine the ability of invention mAb compositions to bind other entities, specifically the latent form of TGF-beta 1 or TGF-beta 3. All measurements are performed at room temperature. Samples are dissolved in HBS-EP buffer (150 mM sodium chloride, 3 mM EDTA, 0.01% (w/v) surfactant P-20, and 10 mM HEPES, pH7.4). Recombinant Protein A is immobilized on all four flow cells of a CM4 sensor chip at a level of 400-450 response units (RUs) using an amine coupling kit.
(§4) Binding is evaluated using multiple analytical cycles. Each cycle is performed at a flow rate of 100 μL/minute consisting of the following steps: injection of 15 μL of an antibody binding composition at 1 μg/mL, injection of 250 μL of either 5 nM TGF-beta 1, 5 nM latent TGF-beta 1, or 5 nM TGF-beta 3 followed by a short delay (5 min) for dissociation, and regeneration using two injections of 50 μL of 10 mM glycine hydrochloride, pH1.5. The amount of signal after capturing first the Mab, and then the ligand, are determined using the instrument control software. Since the signal is proportional to the mass of protein captured, the stoichiometry of the captured ligand is readily calculable (Table 4).

[5] = target: T1, human TGF-beta 3 (RDI, Cat # …); experiment: as above
Procedure: as §3, §4

latent TGF-beta 1 = target: T3, latent TGF-beta 1 (UniProt P01137 30-390, limits assumed); experiment: as above
T3 construct: Latent complex (pro-peptide with mature TGF-beta 1); also called Latent TGF-β1; latent form of TGF-beta 1
Procedure: as §3, §4

[6] = target: T2, human TGF-beta 1 (R&D Systems, Cat # …); experiment: Biacore SPR, mAb captured on Protein A, TGF-beta 1 injected
Procedure: (§5) Alternate methods of measuring kinetic constants are known, for example: affinity of a binding composition for human TGF-beta 1 (R&D Systems, Cat #240-B/CF), TGF-beta 2 (RDI, Cat # RDI-1035) and TGF-beta 3 (RDI, Cat # RDI-1036/CF) is measured using a BlAcore® 2000 instrument. The BIAcore® utilizes the optical properties of surface plasmon resonance to detect alteration in protein concentration of interacting molecules within a dextran biosensor matrix. Except as noted, all reagents and materials are purchased from BIAcore® AB (Upsala, Sweden). All measurements are performed at room temperature. Samples are dissolved in HBS-EP buffer (150 mM sodium chloride, 3 mM EDTA, 0.01% (w/v) surfactant P-20, and 10 mM HEPES, pH7.4). Recombinant Protein A is immobilized on all four flow cells of a CM4 sensor chip at a level of 400-450 response units (RUs) using an amine coupling kit.
(§6) Binding is evaluated using multiple analytical cycles. Each cycle is performed at a flow rate of 50 μL/minute and consists of the following steps: injection of 12 μL of an antibody binding composition at 0.5 μg/mL, injection of 250 μL of TGF-beta 1 (starting at 5 nM and using two-fold serial dilutions to 0.13 nM for each cycle, with two injections for each concentration) followed by either a short (5 minutes) or long (120 minutes) delay for dissociation, and regeneration using two injections of 50VL of 10 mM glycine hydrochloride, pH1.5. Association and dissociation rates for each cycle are determined by fitting of the biosensor data using to a simple association model using ClampXP (Center for Biomolecular Interaction Analysis, Univ. of Utah) to extract the kₒₙ and koff rate constants; the equilibrium binding constant Kd is calculated using the relationship Kd=koff/kₒₙ. Model data for invention compositions are in Table 3 shown below.

[7] = target: T2, human TGF-beta 1 (R&D Systems, Cat # …); experiment: Biacore SPR, calculated koff/kon
Procedure: as §5, §6

[8] = target: T2, human TGF-beta 1 (R&D Systems, Cat # …); experiment: calculated from KinExA Kd and kon
Procedure: (§7) A KinExA 3000 instrument (Sapidyne Inst. Inc.) is used to measure binding kinetics. Briefly, an antigen is covalently coupled to alzactone beads and the binding of a free Fab binding composition of the invention to the beads is detected on the instrument. […] After the incubation, free Fab in each equilibrated sample is determined on the KinExA 3000 according to the manufacturer's instructions. Kd values are determined using KinExA 3000 software.
(§8) To measure kₒₙ, individual Fabs at 2 nM are mixed with 0-240 nM of antigen using the injection method according to the manufacturer's instructions, and the unbound Fab is detected. The resulting data is used to calculate the kₒₙ with KinExA 3000 software. The koff is calculated by using the formula Kd=koff/kₒₙ.

[9] = target: T2, human TGF-beta 1 (R&D Systems, Cat # …); experiment: KinExA 3000, Fab in solution, antigen on beads
Procedure: as §7, §8

[10] = target: T2, human TGF-beta 1 (R&D Systems, Cat # …); experiment: KinExA 3000, equilibrium, Fab in solution
Procedure: as §7

T3 sequence (P01137 30-390 limits assumed): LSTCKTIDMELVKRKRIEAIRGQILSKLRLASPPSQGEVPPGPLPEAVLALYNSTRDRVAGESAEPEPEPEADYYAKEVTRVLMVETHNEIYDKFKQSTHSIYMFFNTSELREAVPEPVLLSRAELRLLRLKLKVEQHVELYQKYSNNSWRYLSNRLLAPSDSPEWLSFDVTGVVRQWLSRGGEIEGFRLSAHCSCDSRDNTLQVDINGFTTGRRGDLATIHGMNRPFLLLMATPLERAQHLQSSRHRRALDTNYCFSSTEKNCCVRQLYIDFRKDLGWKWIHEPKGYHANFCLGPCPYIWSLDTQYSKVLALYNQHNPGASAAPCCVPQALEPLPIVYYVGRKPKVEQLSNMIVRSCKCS
T2 sequence (P01137 279-390 limits assumed): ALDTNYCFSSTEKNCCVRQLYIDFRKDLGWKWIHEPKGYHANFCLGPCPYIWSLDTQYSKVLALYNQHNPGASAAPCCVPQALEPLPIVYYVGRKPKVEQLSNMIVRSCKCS

| Binder | Specificity (Kd, β3/Kd, β1) [1] [fold] | Kd [2] [pM] | Fold Improvement in IC50 relative to mAb2471 (HT-2 cell proliferation assay) [3] [fold] | Stoichiometry of ligand binding [4] | Stoichiometry of ligand binding [5] | Stoichiometry of ligand binding (latent TGF-beta 1) | koff [6] [s⁻¹] | kon [6] [M⁻¹ s⁻¹] | Kd [7] [pM] | koff [8] [s⁻¹] | kon [9] [M⁻¹ s⁻¹] | Kd [10] [pM] |
| --- | --- | --- | --- | --- | --- | --- | --- | --- | --- | --- | --- | --- |
| B1 | 9800 | 4900 | 107 | 1.29 | 0.16 | 0.05 | < 6e-06 | 1.3e+07 | < 0.5 |  |  |  |
| B2 | 621 | 530 | 391 | 1.55 |  | 0.03 | 1.4e-05 | 1.6e+07 | 0.9 |  |  |  |
| B3 |  |  |  |  |  |  |  |  |  | 5.1e-06 | 4.2e+06 | 1.2 |
| B4 |  |  |  |  |  |  |  |  |  | 3.4e-06 | 4e+06 | 0.9 |
| B5 |  |  |  |  |  |  |  |  |  | 1.9e-05 | 4.8e+06 | 4 |
| B6 |  |  |  |  |  |  |  |  |  | 2.3e-06 | 4.5e+06 | 0.5 |
| B7 | 1050 | 660 | 234 | 1.63 | 1.26 | 0.07 | 1e-05 | 1.9e+07 | 0.8 |  |  |  |
